Series [1] concerns LdCsm effector complex, wild type (Csm1/Cas10-Csm2-Csm3-Csm4-Csm5) (Lactobacillus delbrueckii subsp. bulgaricus ND04). The experiment in a line: EMSA. To be noted: 5 nM 5'-32P S10-60 ssDNA in cleavage buffer (composition not in material; cOA assay buffer is 50 mM Tris-Cl pH 6.8 …).
Series [2] relates to LdCsm Csm3D34A (Lactobacillus delbrueckii subsp. bulgaricus ND04). The experiment in a line: EMSA. Conditions: 100 nM effector, 500 nM PTR; 5 nM 5'-32P S10-60 ssDNA in cleavage buffer (composition not in material; cOA assay buffer is 50 mM Tris-Cl pH 6.8 …).

The sequence “ACTATAGGGAGAATAGAATGCCCCCATTATACAATATCTACGTTTTAGATGACCCCCCCC / ACGAGAACUUCAAAGCUUAGAUACCCUGGAGG / AUAGAAUGCCCCCAUUAUACAAUAUCUACGUUUUAGAUGAAAAAAA [S10-60 ssDNA + S1 crRNA + S10 RNA (non-homologous)]” yielded a binding signal (relative to WT with non-homologous RNA) in series [1] (100 nM LdCsm, 400 nM S10 RNA, little binding, reference) of 1.
The sequence “ACTATAGGGAGAATAGAATGCCCCCATTATACAATATCTACGTTTTAGATGACCCCCCCC / ACGAGAACUUCAAAGCUUAGAUACCCUGGAGG / GGUGUUAAGUCUGGUUUCCCUCCAGGGUAUCUAAGCUUUGAAA [S10-60 ssDNA + S1 crRNA + CTR+1]” registered a binding signal (% of full activity) in series [1] (100 nM LdCsm, 500 nM CTR+1) of 90.
In series [1] (100 nM LdCsm, 500 nM CTR+6, reference), “ACTATAGGGAGAATAGAATGCCCCCATTATACAATATCTACGTTTTAGATGACCCCCCCC / ACGAGAACUUCAAAGCUUAGAUACCCUGGAGG / GGUGUUAAGUCUGGUUUCCCUCCAGGGUAUCUAAGCUUUGAAAAAAAA [S10-60 ssDNA + S1 crRNA + CTR+6]” showed a binding signal (fraction of CTR+6 complex) of 1.
Turning to “ACTATAGGGAGAATAGAATGCCCCCATTATACAATATCTACGTTTTAGATGACCCCCCCC / ACGAGAACUUCAAAGCUUAGAUACCCUGGAGG / GGUGUUAAGUCUGGUUUCCCUCCAGGGUAUCUAAGCUUUGAAG [S10-60 ssDNA + S1 crRNA + NTR+1]”, the binding signal (% of full activity) in series [1] (100 nM LdCsm, 500 nM NTR+1) was determined as 70.
In series [2], “ACTATAGGGAGAATAGAATGCCCCCATTATACAATATCTACGTTTTAGATGACCCCCCCC / ACGAGAACUUCAAAGCUUAGAUACCCUGGAGG / UGUUAAGUCUGGUUUCCCUCCAGGGUAUCUAAGCUUUGAA [S10-60 ssDNA + S1 crRNA + PTR (S1-40)]” displayed a binding signal (fold vs non-homologous RNA) of 3. Also, in series [1] (100 nM LdCsm, 500 nM PTR), the binding signal (% of CTR-LdCsm) was 55 and the binding signal (fold vs non-homologous RNA) was 2.
“ACTATAGGGAGAATAGAATGCCCCCATTATACAATATCTACGTTTTAGATGACCCCCCCC / ACGAGAACUUCAAAGCUUAGAUACCCUGGAGG / UGUUAAGUCUGGUUUCCCUCCAGGGUAUCUAAGCUUUGAAAAAAAA [S10-60 ssDNA + S1 crRNA + CTR (S1-46)]”: in series [1] (25-100 nM effector, 500 nM CTR, reference), the binding signal was 100 % of WT.

The values are drawn from paper PMC7214462.
